Legend:
[1] = biological target: T1, WSUCF1 β-xylosidase (Geobacillus zalihae, UniProt A0A7H1RXW2); experiment: residual pNPX hydrolysis with added xylose; format: biochemical; conditions: pNPX 2.5 mg/ml stock as substrate, phosphate buffer pH 6.5, 70°C, 10 min; end-product inhibition
T1 construct: gene IC807_05610; full-length ORF of 1509 bp (about 502 residues); N-His SUMO fusion expressed in E. coli, tag cleaved with SUMO protease; 58 kDa, apparent tetramer of 230 kDa
T1 sequence (A0A7H1RXW2 2-503): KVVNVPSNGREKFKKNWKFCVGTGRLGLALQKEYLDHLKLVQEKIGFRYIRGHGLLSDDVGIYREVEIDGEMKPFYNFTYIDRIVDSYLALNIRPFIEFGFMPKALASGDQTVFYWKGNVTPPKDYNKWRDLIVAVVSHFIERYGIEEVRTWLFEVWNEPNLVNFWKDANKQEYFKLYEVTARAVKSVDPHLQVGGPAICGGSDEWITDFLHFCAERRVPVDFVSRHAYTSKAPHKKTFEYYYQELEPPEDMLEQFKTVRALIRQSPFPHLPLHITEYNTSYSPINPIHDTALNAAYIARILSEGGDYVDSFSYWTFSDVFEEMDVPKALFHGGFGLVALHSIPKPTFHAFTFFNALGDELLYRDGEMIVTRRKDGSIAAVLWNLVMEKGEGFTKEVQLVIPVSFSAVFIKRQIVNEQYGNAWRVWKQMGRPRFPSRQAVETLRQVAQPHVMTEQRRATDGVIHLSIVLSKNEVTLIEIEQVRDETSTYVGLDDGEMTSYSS

[2] = biological target: WSUCF1 β-xylosidase (GH39 β-xylosidase from Geobacillus sp. strain WSUCF1) (Geobacillus sp. strain WSUCF1); experiment: SDS-PAGE without heat treatment, with zymogram; purified enzyme mixed with 2X SDS sample buffer, loaded on an 8-16% gradient SDS-PAGE gel without heating (230 kDa, active) or after 95°C for 2 min (58 kDa, inactive); tetramer inferred from the 4-fold increase in apparent mass
[3] = substrate: O=[N+]([O-])c1ccc(O[C@@H]2OC[C@@H](O)[C@H](O)[C@H]2O)cc1; experiment: purified protein; format: biochemical, Geobacillus zalihae; conditions: 50 mM phosphate buffer pH 6.5, 70°C, 0–15 mM substrate, Table 2 prints 2.3

In the case of OC1OC[C@@H](O)[C@H](O)[C@H]1O (stereo partly drawn) [xylose], the “% activity retained at 300 mM” value [1] is reported as 50%.

“WSUCF1 β-xylosidase (GH39 β-xylosidase from Geobacillus sp. strain WSUCF1) (enzyme)” gave a stoichiometry N [2] of 4.

B1: WSUCF1 β-xylosidase (Geobacillus zalihae) (protein)
chain: T1 sequence (A0A7H1RXW2 2-503)
notes: full-length ORF of 1509 bp (about 502 residues); N-His SUMO fusion expressed in E. coli, tag cleaved with SUMO protease; 58 kDa, apparent tetramer of 230 kDa
In the case of B1, the Km [3] is reported as 2380 µM.

Reference: paper PMC4300165, “Highly thermostable GH39 β-xylosidase from a Geobacillus sp. strain WSUCF1” (BMC Biotechnology, 2014)
